Key:
[1] = target: CumDO-O α1K117A β2W100A (Pseudomonas fluorescens IP01) (UniProt Q51743)
[2] = target: CumDO-O α1K117A β1R65A (Pseudomonas fluorescens IP01) (UniProt Q51743)
[3] = target: CumDO-O α1K117A α1K141A (Pseudomonas fluorescens IP01) (UniProt Q51743)
[4] = target: CumDO-O α1K141A β1R65A (Pseudomonas fluorescens IP01) (UniProt Q51743)
[5] = target: CumDO-O β1R65A β2W100A (Pseudomonas fluorescens IP01) (UniProt Q51743)
[6] = target: CumDO-O α1K141A β2W100A (Pseudomonas fluorescens IP01) (UniProt Q51743)
[7] = target: CumDO-O α1K117A (Pseudomonas fluorescens IP01) (UniProt Q51743)
[8] = target: CumDO-O β1R65A (Pseudomonas fluorescens IP01) (UniProt Q51743)
[9] = target: α3β3-type oxygenase component of cumene dioxygenase (CumDO-O), wild type (Pseudomonas fluorescens IP01) (UniProt Q51743)

Rieske-type ferredoxin of cumene dioxygenase (CumDO-F), sequence (Q51746 entry or part of it): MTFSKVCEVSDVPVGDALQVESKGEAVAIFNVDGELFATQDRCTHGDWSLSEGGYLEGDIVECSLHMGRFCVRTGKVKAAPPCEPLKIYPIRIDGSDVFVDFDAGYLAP

Substance: Rieske-type ferredoxin of cumene dioxygenase (CumDO-F) (from UniProt Q51746 1-109) (natural protein)
- reduction efficiency by CumDO-F relative to WT CumDO-O (A457) [1]: < 20%
- reduction efficiency by CumDO-F relative to WT CumDO-O (A457) [2]: < 20%
- reduction efficiency by CumDO-F relative to WT CumDO-O (A457) [3]: < 20%
- reduction efficiency by CumDO-F relative to WT CumDO-O (A457) [4]: < 20%
- reduction efficiency by CumDO-F relative to WT CumDO-O (A457) [5]: < 20%
- reduction efficiency by CumDO-F relative to WT CumDO-O (A457) [6]: 69%
- reduction efficiency by CumDO-F relative to WT CumDO-O (A457) [7]: 21%
- reduction efficiency by CumDO-F relative to WT CumDO-O (A457) [8]: 46%
- reduction efficiency of the Rieske cluster of CumDO-O by CumDO-F (initial rate of decrease of A457; purified CumDO-R, CumDO-F, CumDO-O and NADH) [9]: 100%

— paper PMC9361823
